Common to all, as to settings: Homo sapiens
Substrate in series [1]: Nc1c(O)cccc1C(=O)CC(N)C(=O)O
Description: (§1) Activity of human wild type kynureninase
Substrate in series [2]: Nc1ccccc1C(=O)C[C@H](N)C(=O)O
Description: as §1
Substrate in series [3]: Nc1c(O)cccc1C(=O)CC(N)C(=O)O
This is another data set of the same source.
Description: (§2) Ratio of kcat to Km for human wild type kynureninase

Substrate in series [4]: Nc1ccccc1C(=O)C[C@H](N)C(=O)O
The source holds these as a separate data set.
Description: as §2

Substrate in series [5]: Nc1c(O)cccc1C(=O)CC(N)C(=O)O
The source holds these as a separate data set.
Description: (§3) Activity of human kynureninase S332G/N333T mutant

Substrate in series [6]: Nc1ccccc1C(=O)C[C@H](N)C(=O)O
This is another data set of the same source.
Description: as §3

Substrate in series [7]: Nc1c(O)cccc1C(=O)CC(N)C(=O)O
This is another data set of the same source.
Description: (§4) Ratio of kcat to Km for human kynureninase S332G/N333T mutant

Substrate in series [8]: Nc1ccccc1C(=O)C[C@H](N)C(=O)O
This is another data set of the same source.
Description: as §4

Substrate in series [9]: Nc1ccccc1C(=O)C[C@H](N)C(=O)O
This is another data set of the same source.
Description: Activity of human kynureninase H102W/N333T mutant

Substrate in series [10]: Nc1c(O)cccc1C(=O)CC(N)C(=O)O
The source holds these as a separate data set.
Description: (§5) Ratio of kcat to Km for human kynureninase H102W/N333T mutant

Substrate in series [11]: Nc1ccccc1C(=O)C[C@H](N)C(=O)O
The source holds these as a separate data set.
Description: as §5

Substrate in series [12]: Nc1ccccc1C(=O)C[C@H](N)C(=O)O
The source holds these as a separate data set.
Description: Activity of human kynureninase H102W/S332G/N333T mutant

Substrate in series [13]: Nc1c(O)cccc1C(=O)CC(N)C(=O)O
The source holds these as a separate data set.
Description: (§6) Ratio of kcat to Km for human kynureninase H102W/S332G/N333T mutant

Substrate in series [14]: Nc1ccccc1C(=O)C[C@H](N)C(=O)O
The source holds these as a separate data set.
Description: as §6

Substrate in series [15]: Nc1c(O)cccc1C(=O)CC(N)C(=O)O
The source holds these as a separate data set.
Description: (§7) Activity of human kynureninase N333T mutant

Substrate in series [16]: Nc1ccccc1C(=O)C[C@H](N)C(=O)O
The source holds these as a separate data set.
Description: as §7

Substrate in series [17]: Nc1c(O)cccc1C(=O)CC(N)C(=O)O
The source holds these as a separate data set.
Description: (§8) Ratio of kcat to Km for human kynureninase N333T mutant

Substrate in series [18]: Nc1ccccc1C(=O)C[C@H](N)C(=O)O
Description: as §8
The source holds these as a separate data set.

Changes are numbered by the printed parent chain. Numbers in names are those of the source.

B1: Kynureninase (Homo sapiens), Q16719 (protein)
chain: MEPSSLELPADTVQRIAAELKCHPTDERVALHLDEEDKLRHFRECFYIPKIQDLPPVDLSLVNKDENAIYFLGNSLGLQPKMVKTYLEEELDKWAKIAAYGHEVGKRPWITGDESIVGLMKDIVGANEKEIALMNALTVNLHLLMLSFFKPTPKRYKILLEAKAFPSDHYAIESQLQLHGLNIEESMRMIKPREGEETLRIEDILEVIEKEGDSIAVILFSGVHFYTGQHFNIPAITKAGQAKGCYVGFDLAHAVGNVELYLHDWGVDFACWCSYKYLNAGAGGIAGAFIHEKHAHTIKPALVGWFGHELSTRFKMDNKLQLIPGVCGFRISNPPILLVCSLHASLEIFKQATMKALRKKSVLLTGYLEYLIKHNYGKDKAATKKPVVNIITPSHVEERGCQLTITFSVPNKDVFQELEKRGVVCDKRNPNGIRVAPVPLYNSFHDVYKFTNLLTSILDSAETKN
Turning to B1, the Km (commonly the substrate concentration at which the rate is half of its maximum) is 28.3 µM in series [1] and 495 µM in [2]. For the same protein, the kcat in series [1] is 3.5 s⁻¹; in series [2], 0.23 s⁻¹. Moreover, the kcat/Km in series [3] was 1.23 ×10⁵ /M/s; in series [4] it was 465 M⁻¹ s⁻¹.

B2: Kynureninase (Homo sapiens), Q16719 S332G,N333T (protein)
chain: B1 chain with S332G, N333T
For the protein B2, the figures for the Km in series [5] and in series [6] were above 510 µM and 540 µM, respectively. Further, the kcat in series [5] was below 10.9 ×10⁻³ /s; in series [6], 0.017 s⁻¹. In addition, the kcat/Km is 21.5 M⁻¹ s⁻¹ in series [7] and 31.4 M⁻¹ s⁻¹ in series [8].

B3: Kynureninase (Homo sapiens), Q16719 H102W,N333T (protein)
chain: B1 chain with H102W, N333T
Turning to B3, in series [9], the Km was determined as 327 µM and the kcat was 0.007 s⁻¹. In addition, the kcat/Km in [10] was below 0.0165 M⁻¹ s⁻¹. Moreover, the kcat/Km in series [11] came out at 21.4 M⁻¹ s⁻¹.

B4: Kynureninase (Homo sapiens), Q16719 H102W,S332G,N333T (protein)
chain: B1 chain with H102W, S332G, N333T
Turning to B4, in series [12], the Km was 143 µM and the kcat is 0.018 s⁻¹. Moreover, in series [13], the kcat/Km is below 0.0165 M⁻¹ s⁻¹. The kcat/Km in series [14] turned out to be 126 M⁻¹ s⁻¹.

B5: Kynureninase (Homo sapiens), Q16719 N333T (protein)
chain: B1 chain with N333T
Consider B5, for which the results for the Km in series [15] and in series [16] were above 200 µM and 499 µM, respectively. Besides, the kcat was below 3.9 ×10⁻³ /s in series [15] and 0.026 s⁻¹ in series [16]. The kcat/Km was found to be 19.8 M⁻¹ s⁻¹ in series [17] and 52.1 M⁻¹ s⁻¹ in [18].
